Laboratory results from patent publication US20230395193A1 (priority 2020, published 2023).

Molecular target: T1, Orf8-IL17RA interaction (Homo sapiens, UniProt Q96F46)
T1 construct: co-immunoprecipitation of endogenous IL17RA with Strep-tagged Orf8; host or cells: HEK293T
T1 sequence (Q96F46 33-866): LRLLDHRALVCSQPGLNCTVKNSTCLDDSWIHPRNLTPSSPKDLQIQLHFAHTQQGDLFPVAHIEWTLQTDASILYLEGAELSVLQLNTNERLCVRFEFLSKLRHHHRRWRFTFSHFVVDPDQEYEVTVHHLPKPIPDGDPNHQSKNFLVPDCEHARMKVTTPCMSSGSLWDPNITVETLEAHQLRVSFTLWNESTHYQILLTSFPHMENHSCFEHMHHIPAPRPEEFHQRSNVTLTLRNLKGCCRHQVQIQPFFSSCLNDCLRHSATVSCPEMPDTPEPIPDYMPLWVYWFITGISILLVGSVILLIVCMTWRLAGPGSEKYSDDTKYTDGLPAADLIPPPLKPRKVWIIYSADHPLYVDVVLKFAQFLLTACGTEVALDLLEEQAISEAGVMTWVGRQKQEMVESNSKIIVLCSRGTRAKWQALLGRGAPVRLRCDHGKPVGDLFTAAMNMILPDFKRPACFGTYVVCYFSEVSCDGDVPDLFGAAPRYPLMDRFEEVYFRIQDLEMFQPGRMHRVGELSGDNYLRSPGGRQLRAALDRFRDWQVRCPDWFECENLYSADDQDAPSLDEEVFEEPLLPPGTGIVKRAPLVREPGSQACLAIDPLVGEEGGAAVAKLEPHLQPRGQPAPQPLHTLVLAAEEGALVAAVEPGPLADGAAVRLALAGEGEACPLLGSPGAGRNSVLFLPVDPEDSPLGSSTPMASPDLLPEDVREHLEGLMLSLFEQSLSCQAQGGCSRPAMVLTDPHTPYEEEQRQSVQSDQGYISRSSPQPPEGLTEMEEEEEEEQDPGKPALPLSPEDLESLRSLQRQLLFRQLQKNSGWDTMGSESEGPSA
Assay type: binding

Substance: IL-17A
- Effect on Orf8-IL17RA interaction (co-immunoprecipitation, in words): does not disrupt the interaction with Orf8
